Here are results for 83 variants from the RNAGym collection of RNA variant scans (doi:10.1073/pnas.2313332121).

B1: TPR 5TU (parent)
chain: GGAUCUUCUCGAUCUAACAAAAAAGACAAAUCUGCCACAAAGCUUGAGAGCAUCUUCGGAUGCAGAGGCGGCAGCCUUCGGUGGCGCGAUAGCGCCAACGUUCUCAACUAUGACACGCAAAACGCGUGCUCCGUUGAAUGGAGUUUAUCAUG

Variants at the floor of the assay were thinned out. Bounds are passed on as bounds.

Variants of B1 are the subject of the data set. The data set is described as follows: polymerase ribozyme fitness, log enrichment relative to wild type (log ratio); higher = more active; in vitro selection for triplet polymerase activity. Summed up: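 Genotype fitness is the logarithm of its enrichment divided by wild-type enrichment, using inverse-variance-weighted averages of replicates. That logarithm is base 2. Enrichment was measured by Illumina sequencing of input and output libraries from one triplicate in vitro selection round, with frozen incubation at −7 °C, on PCR-built, transcribed mutant libraries of each subunit of a heterodimeric triplet polymerase ribozyme, retaining genotypes with ≥10 input reads and ≥1 read per output.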
On to G86A G88U G117U, for which the “polymerase ribozyme fitness (log ratio)” value was not above -4.2.
With C85U A142C, the “polymerase ribozyme fitness (log ratio)” value is -1.12.
In the case of G88A C96G it was -3.74.
Turning to G84A G100A A106G A113U G117U C123U A142C, the “polymerase ribozyme fitness (log ratio)” value was not above -4.2.
Take C87U C108G U145G: the “polymerase ribozyme fitness (log ratio)” value was not above -4.2.
C85A G141C: the “polymerase ribozyme fitness (log ratio)” value was -1.46.
Consider C85A G141A, for which the “polymerase ribozyme fitness (log ratio)” value is -1.85.
Consider C87A G126A, for which the “polymerase ribozyme fitness (log ratio)” value was -4.04.
As to C85A A142U, the “polymerase ribozyme fitness (log ratio)” value is -1.59.
Turning to C87U A122U, the “polymerase ribozyme fitness (log ratio)” value was -0.5.
Take C85U A91C C105U: the “polymerase ribozyme fitness (log ratio)” value is not above -4.2.
As for C85A A121U U127C, the “polymerase ribozyme fitness (log ratio)” value was -1.47.
For G84U G86A U90A G100A, the “polymerase ribozyme fitness (log ratio)” value is not above -4.2.
Consider C87U C96A, for which the “polymerase ribozyme fitness (log ratio)” value is -1.2.
On to C87U C96U, for which the “polymerase ribozyme fitness (log ratio)” value was -1.
Turning to G86U C103A A121G, the “polymerase ribozyme fitness (log ratio)” value is -2.73.
With C85U U101G C125U, the “polymerase ribozyme fitness (log ratio)” value is -0.351.
On to C87U A89U, for which the “polymerase ribozyme fitness (log ratio)” value was -1.2.
For the variant C85A C103A A147G, the “polymerase ribozyme fitness (log ratio)” value was not above -4.2.
Turning to G88C G141C, the “polymerase ribozyme fitness (log ratio)” value is -3.84.
Turning to G86U C118U A119G, the “polymerase ribozyme fitness (log ratio)” value was -4.19.
As to C87G C99U C116G, the “polymerase ribozyme fitness (log ratio)” value was -3.37.
Take C87U C116G G152U: the “polymerase ribozyme fitness (log ratio)” value is -3.11.
For the variant C85A G136A, the “polymerase ribozyme fitness (log ratio)” value is -1.05.
On to G83U C114G A115U A119U, for which the “polymerase ribozyme fitness (log ratio)” value is not above -4.2.
G84U C118U: the “polymerase ribozyme fitness (log ratio)” value is -1.91.
For G86U C93U the value was -2.59; for G86A A122U, -1.33.
For the variant C87G A91C U127G A142U, the “polymerase ribozyme fitness (log ratio)” value is not above -4.2.
C85G A119G: the “polymerase ribozyme fitness (log ratio)” value is -1.7.
For the variant C85G A119C, the “polymerase ribozyme fitness (log ratio)” value was -2.45.
On to C85U C103G C108U A115U G143A, for which the “polymerase ribozyme fitness (log ratio)” value is not above -4.2.
In the case of G84A G92C, the “polymerase ribozyme fitness (log ratio)” value is -3.25.
Regarding C85A A137C, the “polymerase ribozyme fitness (log ratio)” value is -4.13.
G88A U101G U102G A138U U139G: the “polymerase ribozyme fitness (log ratio)” value is not above -4.2.
Regarding C85A A120C A121U U130C U151G, the “polymerase ribozyme fitness (log ratio)” value was not above -4.2.
For C85A C87A C108U A121U U135C G141A U145A the value was not above -4.2; for C85U U102G, -3.32.
For A89C A107C the value was -4.06; for A89C A107U, not above -4.2.
As for C85U A120G, the “polymerase ribozyme fitness (log ratio)” value is -1.65.
In the case of C87U C105U A107U, the “polymerase ribozyme fitness (log ratio)” value is -3.79.
In the case of C85U U144A it was -0.618.
For the variant C87A A91G C103U U135C, the “polymerase ribozyme fitness (log ratio)” value was not above -4.2.
In the case of G86C G126U C131A it was not above -4.2; in that of G84A A115U G126A, -4.17.
Turning to G83U A97G A110U G117U, the “polymerase ribozyme fitness (log ratio)” value was -3.7.
For C87A G117C G136U G141U the value was not above -4.2.
Regarding C85U C96U G126C A147G, the “polymerase ribozyme fitness (log ratio)” value is not above -4.2.
With C87A A97U, the “polymerase ribozyme fitness (log ratio)” value was not above -4.2.
For the variant C85A U139G, the “polymerase ribozyme fitness (log ratio)” value was -1.11.
Regarding C85U U146A G152U, the “polymerase ribozyme fitness (log ratio)” value was -3.06.
In the case of G84A C118U it was -0.13.
On to C85G U144A, for which the “polymerase ribozyme fitness (log ratio)” value was -2.27.
With C85A G126U, the “polymerase ribozyme fitness (log ratio)” value was -0.409.
On to C85A G126C, for which the “polymerase ribozyme fitness (log ratio)” value was -0.131.
In the case of G84A A91U U102G U144A, the “polymerase ribozyme fitness (log ratio)” value is not above -4.2.
In the case of C85U A98G A113U U135C it was -3.59; in that of G84U A106G U109A A121U C131A G141A U145A, not above -4.2; in that of C87G C105A, not above -4.2.
With G84C G126C, the “polymerase ribozyme fitness (log ratio)” value is -1.54.
With G86A C123A U148G, the “polymerase ribozyme fitness (log ratio)” value is -4.02.
In the case of C87U C118U, the “polymerase ribozyme fitness (log ratio)” value is -0.642.
In the case of G86A G100A, the “polymerase ribozyme fitness (log ratio)” value was -3.89.
Regarding C85A C87U A98C, the “polymerase ribozyme fitness (log ratio)” value was -3.62.
As to C85U A115U C118A A120G, the “polymerase ribozyme fitness (log ratio)” value is -3.37.
Regarding G83U U101A A115U G117U, the “polymerase ribozyme fitness (log ratio)” value was not above -4.2.
For the variant C85U C118U A142U, the “polymerase ribozyme fitness (log ratio)” value is -1.02.
In the case of G83U C96U, the “polymerase ribozyme fitness (log ratio)” value was -0.875.
In the case of C85U A150U G152A, the “polymerase ribozyme fitness (log ratio)” value is -0.481.
G84U U145A: the “polymerase ribozyme fitness (log ratio)” value was -1.53.
In the case of C85A G143U it was -2.37; in that of C85A G143C, -3.01; in that of C85U C96A C116G, -0.604.
G83U A110U: the “polymerase ribozyme fitness (log ratio)” value is -4.17.
Turning to G84U C99U G141C, the “polymerase ribozyme fitness (log ratio)” value is -2.46.
For C85U A147G the value was -1.25.
In the case of C87G C99U, the “polymerase ribozyme fitness (log ratio)” value is not above -4.2.
As for C85U C87G G140C, the “polymerase ribozyme fitness (log ratio)” value was not above -4.2.
In the case of C87A A107G A115U U135C A142C, the “polymerase ribozyme fitness (log ratio)” value was not above -4.2.
Regarding C85U G143C, the “polymerase ribozyme fitness (log ratio)” value was -1.66.
Regarding C85A G152C, the “polymerase ribozyme fitness (log ratio)” value was -2.88.
As to C85A G152A, the “polymerase ribozyme fitness (log ratio)” value is -3.87.
